In paper PMC9428257:

Target: T1, human APRIL (a proliferation-inducing ligand) (human), O75888
T1 chain: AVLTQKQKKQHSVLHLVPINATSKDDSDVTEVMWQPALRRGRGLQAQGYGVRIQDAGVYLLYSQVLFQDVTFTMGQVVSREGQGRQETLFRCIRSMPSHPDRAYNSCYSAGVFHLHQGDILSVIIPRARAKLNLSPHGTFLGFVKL
Experiment: FACS
Settings: domain or fragment; chains chain; remark: other sources report otherwise

- Kd: 0.025 nM
B1: yeast-displayed wild-type sBCMA (human BCMA extracellular domain, Met1-Ala54), Q02223 1-54 (protein)
chain: MLQMAGQCSQNEYFDSLLHACIPCQLRCSSNTPPLTCQRYCNASVTNSVKGTNA
